Paper PMC11297037 (Nature Communications, 2024)

Target: the molecule itself
Assay: cryo-EM structure

B1: human neutral amino acid transporter ASCT2 (natural protein)
chain: MVADPPRDSKGLAAAEPTANGGLALASIEDQGAAAGGYCGSRDQVRRCLRANLLVLLTVVAVVAGVALGLGVSGAGGALALGPERLSAFVFPGELLLRLLRMIILPLVVCSLIGGAASLDPGALGRLGAWALLFFLVTTLLASALGVGLALALQPGAASAAINASVGAAGSAENAPSKEVLDSFLDLARNIFPSNLVSAAFRSYSTTYEERNITGTRVKVPVGQEVEGMNILGLVVFAIVFGVALRKLGPEGELLIRFFNSFNEATMVLVSWIMWYAPVGIMFLVAGKIVEMEDVGLLFARLGKYILCCLLGHAIHGLLVLPLIYFLFTRKNPYRFLWGIVTPLATAFGTSSSSATLPLMMKCVEENNGVAKHISRFILPIGATVNMDGAALFQCVAAVFIAQLSQQSLDFVKIITILVTATASSVGAAGIPAGGVLTLAIILEAVNLPVDHISLILAVDWLVDRSCTVLNVEGDALGAGLLQNYVDRTESRSTEPELIQVKSELPLDPLPVPTEEGNPLLKHYRGPAGDATVASEKESVM
  stoichiometry N: 3
